Test results: publication PMC10712694 (International Journal of Molecular Medicine, 2023)

Experiments:
[1] = molecular target: T1, LGR4 extracellular (ligand-binding) domain, L62 to V464, His-tagged (UniProt A2ARI4 62-464); test: MST
T1 sequence (looked up): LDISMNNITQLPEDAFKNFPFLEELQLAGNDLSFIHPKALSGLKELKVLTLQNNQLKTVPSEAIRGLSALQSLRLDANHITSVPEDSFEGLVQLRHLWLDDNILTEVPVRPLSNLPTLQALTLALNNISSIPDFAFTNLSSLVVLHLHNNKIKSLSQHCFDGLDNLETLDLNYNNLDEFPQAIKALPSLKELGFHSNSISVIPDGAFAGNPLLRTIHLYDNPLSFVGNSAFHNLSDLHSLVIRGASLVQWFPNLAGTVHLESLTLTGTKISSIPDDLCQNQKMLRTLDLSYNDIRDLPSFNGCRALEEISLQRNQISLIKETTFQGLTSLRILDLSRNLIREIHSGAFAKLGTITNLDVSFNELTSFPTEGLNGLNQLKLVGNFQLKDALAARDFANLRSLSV

[2] = molecular target: T2, RANK extracellular (ligand-binding) domain, Q30 to P213, His-tagged (UniProt O35305 30-213); test: MST
T2 sequence (looked up): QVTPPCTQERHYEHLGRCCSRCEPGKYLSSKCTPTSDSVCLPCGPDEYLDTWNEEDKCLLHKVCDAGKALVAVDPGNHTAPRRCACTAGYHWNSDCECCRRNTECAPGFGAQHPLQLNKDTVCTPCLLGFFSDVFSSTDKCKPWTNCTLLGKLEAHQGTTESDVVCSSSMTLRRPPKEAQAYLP

Kd [1]: 409 nM | Kd [2]: 33.3 nM
B1: wild-type RANKL (receptor activator of nuclear factor-κB ligand) (ligand, UniProt O35235 139-316, looked up)
chain: FSGAPAMMEGSWLDVAQRGKPEAQPFAHLTINAASIPSGSHKVTLSSWYHDRGWAKISNMTLSNGKLRVNQDGFYYLYANICFRHHETSGSVPTDYLQLMVYVVKTSIKIPSSHNLMKGGSTKNWSGNSEFHFYSINVGGFFKLRAGEEISIQVSNPSLLDPDQDATYFGAFKVQDID
